According to the supplement of paper PMC10567573:

B1: SLC19A2 (parent)
chain: FHHIPSTCQRVNGIKVQNGGIVTD
B2: OAS1 (parent)
chain: LQLGEGVEFDVLPAFDALGQLTGG

Variants of: B1
Assay: protein stability index of a GFP-peptide fusion (GPS, HEK-293T) (PSI 1-6); higher = more stable
Settings: c terminus: a fixed tail appended
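Note: lentivirally expressed fusions sorted by FACS into six bins by GFP to DsRed ratio, PSI derived from sequencing read proportions per bin multiplied by bin number.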

Protein stability index: each site, then its substitutions
K15: G 2.38 | E 2.22 | F 2.49 | C 2.2 | D 2.57 | V 2.14 | S 2.24 | H 2.37 | I 2.14 | Y 2.47 | M 1.64 | A 1.91 | L 2.15 | N 2.05 | T 2.19 | Q 2.47 | R 2.2 | P 2.33
V16: L 1.79 | E 1.49 | M 2.44 | C 2.2 | Y 1.95 | D 2.31 | W 2.14 | H 2.15 | F 1.6 | G 2.13 | R 1.93 | K 2.02 | S 2.26 | T 1.89 | Q 1.56 | I 1.51 | N 1.96 | A 2.13 | P 2.14
Q9: F 2.35 | N 2.08 | C 2.13 | R 1.77 | M 2.27 | G 1.68 | D 1.8 | V 2.04 | E 2.29 | T 1.84 | P 1.81 | H 1.78 | I 1.65 | A 1.46 | L 2.92 | K 1.55 | S 1.67
Q17: W 1.62 | C 2.37 | N 2.17 | M 1.09 | T 1.67 | P 2.35 | F 1.41 | A 1.89 | L 1.34 | E 2.28 | V 2.1 | R 2.81 | K 2.66 | D 2.05 | H 2.08 | G 1.87 | I 1.6 | Y 2.31 | S 2.72
I14: V 1.69 | C 1.72 | Q 2.14 | E 2.69 | G 2.6 | D 1.88 | P 2.19 | N 2.07 | L 2 | Y 1.47 | T 2.17 | S 2.62 | M 2.23 | F 2.32 | K 2.19 | H 2.31 | R 2.18 | W 2.7 | A 2.2
D24: M 2.38 | S 2.12 | Y 3.21 | N 2.47 | H 2.11 | P 1.72 | I 2.06 | C 1.5 | G 1.16 | E 2.06 | T 1.7 | Q 1.94 | A 2.16 | K 2.64 | R 1.89
N12: W 1.01 | D 2.86 | Q 2.43 | G 2.07 | A 1.84 | R 2.47 | T 1.78 | P 2.05 | E 2.04 | H 1.89 | C 1.84 | K 2.22 | I 1.42 | L 2.1 | Y 1.78 | F 1.74 | S 2.36 | V 1.82
G13: H 1.64 | L 1.58 | Q 2.73 | E 2.13 | D 2 | F 1.71 | P 1.85 | M 2.08 | T 2.28 | R 2.21 | I 1.75 | Y 2.19 | K 2.5 | A 1.77 | C 1.89 | N 2.01 | S 1.97 | V 1.73
V11: S 1.93 | W 1.44 | R 3.19 | P 2.54 | Y 2.09 | C 1.49 | Q 2.48 | M 2.26 | L 1.59 | F 1.81 | E 2.08 | A 2.25 | H 1.83 | D 2.42 | I 2.43 | K 2.11 | N 2.49 | G 2.19 | T 2.04
C8: S 2.27 | Y 1.86 | L 2.3 | N 2.69 | M 2.39 | T 2.84 | I 1.99 | P 1.94 | V 2.3 | H 2.13 | G 2.07 | W 1.93 | Q 1.97 | D 2.38 | E 2.18 | F 1.97 | K 1.83 | R 3.48
T23: V 1.67 | W 1.45 | C 2.27 | S 2.18 | N 1.86 | E 1.85 | A 2.4 | I 1.57 | P 1.89 | L 1.95 | Q 2.44 | F 1.81 | Y 1.75 | R 4.73 | D 2.53 | M 2.15 | H 3.31 | G 1.67 | K 2.11
I21: L 1.61 | P 1.6 | E 2.15 | T 2.19 | H 2.09 | S 1.85 | N 3.07 | G 2.2 | K 3.06 | M 2.03 | A 2.46 | Q 2.16 | R 2.43 | D 2.24 | C 1.79 | F 1.83 | Y 2.18
G19: S 1.51 | W 1.62 | T 2.78 | V 2.32 | Q 2.16 | L 1.72 | N 2.37 | R 1.65 | Y 1.74 | A 1.65 | M 1.27 | F 2.25 | K 1.94 | I 3.46 | E 2.81 | H 1.59 | P 2.04 | D 2.36 | C 2.34
V22: W 1.91 | N 2.23 | S 2.23 | Y 1.47 | G 1.56 | Q 2.18 | D 2.42 | C 1.61 | I 1.73 | K 1.77 | P 2.62 | T 2.52 | E 1.84 | R 2.19 | F 3.33 | A 2.44 | H 2.01 | M 1.52 | L 2.2
G20: T 1.76 | L 1.64 | C 1.8 | E 1.95 | Q 1.8 | D 2.2 | V 1.5 | R 1.73 | I 1.9 | M 2.18 | A 1.59 | F 1.65 | H 2.19 | N 2.29 | K 1.87 | P 2.2 | S 2.34
N18: S 1.92 | C 1.52 | K 1.68 | I 2.94 | G 3.96 | Q 1.48 | F 2.04 | R 2.14 | P 2.08 | E 2.01 | Y 1.63 | A 1.77 | T 1.65 | M 1.98 | L 1.28 | D 1.81
R10: Y 2.07 | E 2.46 | N 1.6 | S 1.89 | I 1.98 | L 2.46 | P 1.78 | W 2.97 | H 2.5 | D 2.65 | K 1.91 | Q 1.87 | G 2.23 | T 1.99 | A 1.81 | V 2.46 | C 2.36 | M 1.67 | F 1.7

Variants of: B2
Assay: as above
Settings: c terminus: a fixed tail appended

Protein stability index, by site and new letter:
L1: A 3.26 | N 4.18
T22: M 1.07 | Y 1.08 | H 2.06
D10: T 1.36
G4: E 3.05 | R 1.78
P13: G 1.31 | H 2.21
V11: C 2
L21: T 1.89
G6: Q 2.51 | K 3
G19: A 1.77
L12: D 4.05
A17: H 1.76
V7: T 2.41 | H 2.9
F15: I 2.27 | D 3.12
L3: R 3.24
E5: A 1.99 | G 2.63 | V 2.24
Q20: K 1.9
A14: G 1.88 | I 1.48
